Measured values as given in US20250026849A1 (ARCELLX, published 2025).
Substitutions are numbered along the chain they refer to. Each block holds one binder with its values, some of them ahead of it.

Molecular target: T1, CD123 (Homo sapiens (Human), UniProt P26951 19-305, limits assumed)
T1 construct: The CD123 construct used in the ELISA is not described; also called CD123-Signal
T1 sequence: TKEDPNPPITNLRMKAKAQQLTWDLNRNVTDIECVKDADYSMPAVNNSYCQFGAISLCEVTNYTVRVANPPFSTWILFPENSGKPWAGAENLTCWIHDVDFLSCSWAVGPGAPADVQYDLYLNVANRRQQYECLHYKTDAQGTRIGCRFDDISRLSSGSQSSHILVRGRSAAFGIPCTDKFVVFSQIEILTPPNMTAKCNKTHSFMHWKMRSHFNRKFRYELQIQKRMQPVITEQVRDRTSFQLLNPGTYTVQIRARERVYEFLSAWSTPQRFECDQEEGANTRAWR
Assay: ELISA
Parameters: unit not given here

- ELISA_avg: 3.5
B2: D domain of SEQ ID NO: 536 (designed binder)
chain: MGSWHWFKIVLADIKDGLEALGGSEAELAYFETTIADFEMDLHHYKGKGNPEVEALRKEAAAIRDELQAYRHN

- ELISA_avg: 11.1
B4: D domain of SEQ ID NO: 524 (designed binder)
chain: MGSWYIFKEDLAEIKEELEALGGSEAELAYFEEEIALFEMELQWYKGKGNPEVEALRKEAAAIRDELQAYRHN

- ELISA_avg: 4.4
B14: D domain of SEQ ID NO: 534 (designed binder)
chain: MGSWNFFKYDLADIMAYLEALGGSEAELAFFEDEIANFEHDLQKYKGKGNPEVEALRKEAAAIRDELQAYRHN

- ELISA_avg: 3.2
B15: D domain of SEQ ID NO: 523 (designed binder)
chain: MGSWYDFKYDLAEIKMDLEALGGSEAELAQFEFDIAFFEEELQDYKGKGNPEVEALRKEAAAIRDELQAYRHN

- ELISA_avg: 5
B17: D domain of SEQ ID NO: 520 (designed binder)
chain: MGSWMEFKEELAEIKYILEALGGSEAELAWFEQSIADFEYDLQDYKGKGNPEVEALRKEAAAIRDELQAYRHN

- ELISA_avg: 3.5
B19: D domain of SEQ ID NO: 525 (designed binder)
chain: MGSWVLFKEELAYIKFELEALGGSEAELALFENVIAIFESNLQNYKGKGNPEVEALRKEAAAIRDELQAYRHN

- ELISA_avg: 4
B21: D domain of SEQ ID NO: 530 (designed binder)
chain: MGSWYYFKDELADIKWDLEALGGSEAELAWFEMLIAQFELDLQWYKGKGNPEVEALRKEAAAIRDELQAYRHN

- ELISA_avg: 3.1
B23: D domain of SEQ ID NO: 531 (designed binder)
chain: B21 chain with Y5M, E10T, D17Y, W30F, M33D, L34W, Q37E, L40D, W44V

- ELISA_avg: 3.8
B24: D domain of SEQ ID NO: 533 (designed binder)
chain: B21 chain with Y6V, E10D, W16Y, D17M, M33W, L34E, Q37N, L40F, W44Y

- ELISA_avg: 8
B25: D domain of SEQ ID NO: 528 (designed binder)
chain: MGSWYDFKEDLADIKWMLEALGGSEAELAEFENVIAYFENDLQEYKGKGNPEVEALRKEAAAIRDELQAYRHN

- ELISA_avg: 10.1
B26: D domain of SEQ ID NO: 519 (designed binder)
chain: B17 chain with M5S, E6F, E9D, E10D, I17F, W30M, S34T, D37E

- ELISA_avg: 3.3
B27: D domain of SEQ ID NO: 527 (designed binder)
chain: MGSWDHFKNDLAWIKKHLEALGGSEAELAEFEAVIAYFELYLQGYKGKGNPEVEALRKEAAAIRDELQAYRHN

- ELISA_avg: 3.2
B28: D domain of SEQ ID NO: 526 (designed binder)
chain: MGSWQDFKEDLAWIKYELEALGGSEAELAFFEYDIAIFENNLQHYKGKGNPEVEALRKEAAAIRDELQAYRHN

- ELISA_avg: 7
B30: D domain of SEQ ID NO: 529 (designed binder)
chain: B21 chain with Y6M, D9E, D17Y, M33D, L34D, Q37G, L40W, W44A

- ELISA_avg: 3.5
B32: D domain of SEQ ID NO: 521 (designed binder)
chain: B17 chain with M5A, E6W, E10D, Y16V, I17F, W30E, Q33V, D41E

- ELISA_avg: 4.6
B37: D domain of SEQ ID NO: 522 (designed binder)
chain: B15 chain with D6E, Y9F, M16E, D17Q, Q30L, F33D, E40Y, E41D, D44N

More lines, now with the values behind:

B1: D domain of SEQ ID NO: 535 (designed binder)
chain: B2 chain with H43Q
- ELISA_avg: 4.3

B3: D domain of SEQ ID NO: 508 (designed binder)
chain: B4 chain with Y5S, I6W, E16M, E33W, E34Y, L37E, M40F, E41Q, W44H
- ELISA_avg: 4.8

B5: D domain of SEQ ID NO: 510 (designed binder)
chain: MGSWSWFKEDLADIKFELEALGGSEAELAWFELDIADFEQALQQYKGKGNPEVEALRKEAAAIRDELQAYRHN
- ELISA_avg: 6.8

B6: D domain of SEQ ID NO: 511 (designed binder)
chain: B5 chain with D13S, F16A, E17V, W30F, L33S, D37E, A41E, Q44Y
- ELISA_avg: 6.9

B7: D domain of SEQ ID NO: 509 (designed binder)
chain: B5 chain with E9Q, F16I, E17Q, L33W, D37E, Q40F, A41E, Q44D
- ELISA_avg: 4

B8: D domain of SEQ ID NO: 514 (designed binder)
chain: MGSWNEFKDDLAMIKMTLEALGGSEAELAWFEHDIAEFEDDLQWYKGKGNPEVEALRKEAAAIRDELQAYRHN
- ELISA_avg: 3.5

B9: D domain of SEQ ID NO: 515 (designed binder)
chain: B8 chain with N5T, E6F, M13E, M16W, T17M, H33S, E37Y, D41E
- ELISA_avg: 3.3

B10: D domain of SEQ ID NO: 518 (designed binder)
chain: B8 chain with N5Q, E6Y, M13E, T17V, H33A, E37M, W44I
- ELISA_avg: 3.6

B11: D domain of SEQ ID NO: 516 (designed binder)
chain: B8 chain with N5S, E6D, M13E, T17I, W30Y, H33N, E37W, W44E
- ELISA_avg: 4.7

B12: D domain of SEQ ID NO: 513 (designed binder)
chain: B8 chain with N5E, E6W, D9S, M13S, M16W, T17E, D40E
- ELISA_avg: 5.7

B13: D domain of SEQ ID NO: 517 (designed binder)
chain: B8 chain with N5S, E6M, M13E, M16A, T17S, H33D, E37W, W44H
- ELISA_avg: 5.2

B16: D domain of SEQ ID NO: 500 (designed binder)
chain: B17 chain with M5E, E6F, E10V, I17D, Q33T, S34D, D37G, Y40I, D44V
- ELISA_avg: 8.2

B18: D domain of SEQ ID NO: 501 (designed binder)
chain: MGSWVFFKEDLATIKNDLEALGGSEAELAWFEMMIADFEADLQYYKGKGNPEVEALRKEAAAIRDELQAYRHN
- ELISA_avg: 3.1

B20: D domain of SEQ ID NO: 499 (designed binder)
chain: MGSWIFFKEQLAIIKWELEALGGSEAELAWFEDDIAAFEDDLQFYKGQGNPEVEALRKEAAAIRDELQAYRHN
- ELISA_avg: 15

B22: D domain of SEQ ID NO: 532 (designed binder)
chain: B5 chain with S5Y, W6Q, E9H, F16Y, E17G, L33D, Q40L, A41D, Q44Y
- ELISA_avg: 4.7

B29: D domain of SEQ ID NO: 498 (designed binder)
chain: MGSWYVFKDELAEIKQFLEALGGSEAELAWFEDDIAEFETQLQHYKGKGNPEVEALRKEAAAIRDELQAYRHN
- ELISA_avg: 9.9

B31: D domain of SEQ ID NO: 502 (designed binder)
chain: B17 chain with M5E, E10D, Y16V, I17W, Q33M, S34G, Y40D, D41G, D44F
- ELISA_avg: 4.3

B33: D domain of SEQ ID NO: 503 (designed binder)
chain: B5 chain with S5H, D13N, F16D, E17W, L33D, D34N, Q40G, A41D, Q44V
- ELISA_avg: 3.3

B34: D domain of SEQ ID NO: 512 (designed binder)
chain: B8 chain with N5W, D9E, M13E, M16W, T17F, E37K, D40F, D41E, W44Y
- ELISA_avg: 5.1

B35: D domain of SEQ ID NO: 504 (designed binder)
chain: B18 chain with V5F, F6W, T13F, N16E, M33D, M34G, D37F, A40W, Y44D
- ELISA_avg: 13.7

B36: D domain of SEQ ID NO: 506 (designed binder)
chain: MGSWHWFKEDLAIIKQDLEALGGSEAELATFEQWIAEFEWDLQEYKGKGNPEVEALRKEAAAIRDELQAYRHN
- ELISA_avg: 5.5

B38: D domain of SEQ ID NO: 507 (designed binder)
chain: B36 chain with H5N, Q16M, T30W, Q33H, W34N, E37G, W40F, D41E, E44G
- ELISA_avg: 3.1

B39: D domain of SEQ ID NO: 505 (designed binder)
chain: B36 chain with H5Q, I13E, Q16H, T30W, Q33D, W34F, E37Q, W40F, E44W
- ELISA_avg: 3.8
